No end group written: not given here.
Assays:
Type in all cases: in vivo
[1] = system: CS-1 melanoma tumor cells; test: CS-1 melanoma tumor growth on the CAM of chick embryos, systemic Pexstatin
Description: CS-1 melanoma tumor cells (5×10^6) were inoculated on the Chorioallantoic Membranes (CAMs) of 10 day old chick embryos. Twenty four hours latter the embryos received a single intravenous injection of 50 μg of Pexstatin peptide or PBS control. At the end of a 7 day incubation period the resulting tumors were resected and wet weights determined. Data bars represent the mean±the standard errors of the tumor weight from 5 to 10 embryos per condition.

[2] = system: B16 melanoma tumor cells; test: Chick embryo experimental metastasis model, B16 melanoma; details: 10 μg/embryo inoculated intravenously with the tumor cells, 12 day old chick embryos, 7 day incubation
Description: To examine the effects of Pexstatin on melanoma tumor metastasis in vivo, the chick embryo experimental metastasis model was utilized. Briefly, B16 melanoma tumor cells (2.5×10^4) were inoculated intravenously with Pexstatin (10 μg/embryo) or a control peptide in 12 day old chick embryos. In addition, a no treatment control was also added (NT). The Embryos were allowed to incubate for a total of 7 days. At the end of a 7 day incubation period the embryos were sacrificed and the lungs were removed for analysis. The number of melanoma lung lesions were counted for each lobe of the lung. Data bars represent the mean+the standard errors of the metastatic lung lesions from 5 to 10 embryos per condition.

[3] = system: M21 human melanoma tumor cells; test: M21 human melanoma tumor growth in nude mice, systemic Pexstatin; details: female nude mice, daily injections of 100 μg
Description: M21 human melanoma tumor cells (2×10^6) were injected subcutaneously into female nude mice. Twenty four hours later the mice were treated daily with injections of 100 μg of Pexstatin MMP-2 peptide or PBS controls. Tumor sizes were monitored daily by caliper measurements. Data bars represent the mean tumor volume+the standard errors at each time point. Tumor volumes were estimated using the formula V=L2×W/2, V=volume, L=length, and W=width.

[4] = system: βFGF induced angiogenesis; test: βFGF induced angiogenesis in the chick CAM assay, systemic Pexstatin; details: 3 day incubation
Description: A). Filter discs saturated with βFGF were placed on the CAMs of 10 day old chick embryos. Twenty four hours later, the embryos received a single intravenous injection with 50 μg of Pexstatin, control peptide or PBS. At the end of a 3 day incubation period the filter discs and surrounding CAM tissue were removed and angiogenesis was quantified by counting the number of blood vessel branch points within the area of the filter disc.
B). FIG. 4 illustrates the quantification of the angiogenesis experiment with Pexstatin. Data bars represent the mean+standard errors of 5 to 10 embryos per condition. The angiogenesis index is equal to the number of branch points from experimentally treated embryos minus the number of branch points from CAMs in the absence of βFGF.

CIFAGDKFWRC (cysteine pairing not given here) [Pexstatin, eleven amino acid peptide based on MMP-2 positions 582–590 flanked by cysteine residues]
toxic side effects during the assay period ([1]; chick embryo, single i.v. 50 μg, 7 day incubation): no toxic side effects were noted | inhibition of CS1 melanoma tumor growth (tumor wet weight) as compared to controls ([1]; single intravenous injection of 50 μg, 24 h after inoculation, within 7 days, chick embryo CAM): approximately 60% | inhibition of experimental B16 melanoma metastasis (lung lesions) as compared to controls [2]: approximately 80% | toxic side effects during the assay period [3]: no toxic side effects were noted | toxic side effects in the embryos during the assay period ([4]; chick embryo, single i.v. 50 μg): no toxic side effects were noted | inhibition of βFGF induced angiogenesis (angiogenesis index, branch points) as compared to controls ([4]; single intravenous injection of 50 μg, chick CAM): approximately 90%
